Experimental data as given in patent US20090304651A1 (published 2009).

Assays:
[1] = target: T1, recombinant human IGF-II (Insulin-like Growth Factor II) (human, UniProt P01344 25-91, biotinylated (Biotinyl-IGF-II, GroPep) where immobilised in SPR, site not stated; not biotinylated in ITC and as SPR analyte); assay: SPR, IGF-II immobilised, kinetic fit
T1 construct: also called IGF2; IGF-2
Protocol: (§1) Kinetic analysis by Surface Plasmon Resonance (SPR) was conducted on a BIAcore 3000 biosensor (BIAcore, Uppsala, Sweden) at 25° C. in HBS-EP (10 mM HEPES, pH 7.4, 150 mM NaCl, 3 mM EDTA, 0.005% surfactant P20) at a flow rate of 40 μl/min. […] Kinetic experiments consisted of a two minute injection of analyte followed by a 100 s dissociation phase in running buffer, after which the binding surface was regenerated with a 2 minute injection of 2 M MgCl₂. A blank flow cell was used for in-line reference subtraction of changes due to differences in refractive index of running buffer versus sample and a buffer-only injection was used to subtract instrument noise and drift. Injections were performed in duplicate for each concentration and in a randomised order. Kinetic parameters were determined by global fitting of sensorgrams to a two-state (conformational change) binding model using BIAevaluation software version 4.0.1. In all cases the minor component made an insignificant contribution to the overall affinity and as such only the kinetic parameters of the major binding component were used. For each interaction the dissociation affinity constant (KD) was also calculated by fitting of the response of each concentration at equilibrium to a steady-state affinity model using BIAevaluation. In order to investigate the influence of ionic strength, kinetic experiments were conducted in HBS-EP running buffers containing the desired NaCl concentration. In each case, analyte samples were made up in the appropriate running buffer prior to injection.

[2] = target: T1, recombinant human IGF-II (Insulin-like …); assay: SPR, IGF-II immobilised, steady state
Protocol: as §1, with “In order to investigate the influence of ionic strength, kinetic experiments were conducted in HBS-EP running buffers containing the desired NaCl concentration. In each case, analyte samples were made up in the appropriate running buffer prior to injection.” left out

[3] = target: T1, recombinant human IGF-II (Insulin-like …); assay: SPR, IGF-II immobilised
Protocol: (§2) Kinetic experiments consisted of a two minute injection of analyte followed by a 100 s dissociation phase in running buffer, after which the binding surface was regenerated with a 2 minute injection of 2 M MgCl₂. A blank flow cell was used for in-line reference subtraction of changes due to differences in refractive index of running buffer versus sample and a buffer-only injection was used to subtract instrument noise and drift. Injections were performed in duplicate for each concentration and in a randomised order. Kinetic parameters were determined by global fitting of sensorgrams to a two-state (conformational change) binding model using BIAevaluation software version 4.0.1. In all cases the minor component made an insignificant contribution to the overall affinity and as such only the kinetic parameters of the major binding component were used. For each interaction the dissociation affinity constant (KD) was also calculated by fitting of the response of each concentration at equilibrium to a steady-state affinity model using BIAevaluation. In order to investigate the influence of ionic strength, kinetic experiments were conducted in HBS-EP running buffers containing the desired NaCl concentration. In each case, analyte samples were made up in the appropriate running buffer prior to injection.
(§3) The affinity of versions of Fc-tagged domain 11 fusion proteins, and domain 11 constructs, for IGF-II were compared using surface plasmon resonance (BIAcore 3000). Attempts were made to immobilize Fc-tagged domain 11 proteins upon a sensor chip surface (CM5 and CM5-proteinA) but we encountered similar problems as described above with immobilised monomeric domain 11. Instead, immobilisation of biotinylated IGF-I and IGF-II on separate flow cells of a streptavidin coated sensor chip (BIAcore) generated reproducible sensorgram profiles when Fc-tagged and untagged domain 11 proteins were passed over the surface as analytes. The Fc-tagged domain 11 kinetic data performed in triplicate generated sensorgrams that were analyzed using a bivalent analyte model.

[4] = target: T2, recombinant human IGF-I (Insulin-like Growth Factor I) (human, UniProt P05019 49-118, biotinylated (Biotinyl-IGF-I, GroPep), site not stated); assay: SPR, biotinylated IGF-I immobilised
T2 construct: also called IGF1; Biotinyl-IGF-I
T2 sequence (P05019 49-118 limits assumed): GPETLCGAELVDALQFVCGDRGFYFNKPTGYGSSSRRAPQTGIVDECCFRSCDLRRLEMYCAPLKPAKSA
Protocol: as §2, §3

[5] = target: T1, recombinant human IGF-II (Insulin-like …); assay: SPR, IGF-II immobilised, bivalent analyte model
Protocol: as §2, with “In order to investigate the influence of ionic strength, kinetic experiments were conducted in HBS-EP running buffers containing the desired NaCl concentration. In each case, analyte samples were made up in the appropriate running buffer prior to injection.” left out
(§4) The affinity of versions of Fc-tagged domain 11 fusion proteins, and domain 11 constructs, for IGF-II were compared using surface plasmon resonance (BIAcore 3000). […] The Fc-tagged domain 11 kinetic data performed in triplicate generated sensorgrams that were analyzed using a bivalent analyte model.

[6] = target: T1, recombinant human IGF-II (Insulin-like …); assay: SPR, IGF-II immobilised, bivalent analyte model, ka1
Protocol: as §2, with “In order to investigate the influence of ionic strength, kinetic experiments were conducted in HBS-EP running buffers containing the desired NaCl concentration. In each case, analyte samples were made up in the appropriate running buffer prior to injection.” left out
as §4

[7] = target: T1, recombinant human IGF-II (Insulin-like …); assay: SPR, IGF-II immobilised, bivalent analyte model, kd1
Protocol: as §2, with “In order to investigate the influence of ionic strength, kinetic experiments were conducted in HBS-EP running buffers containing the desired NaCl concentration. In each case, analyte samples were made up in the appropriate running buffer prior to injection.” left out
as §4

[8] = target: T1, recombinant human IGF-II (Insulin-like …); assay: SPR, biotinylated IGF-II immobilised
Protocol: as §2, with “In order to investigate the influence of ionic strength, kinetic experiments were conducted in HBS-EP running buffers containing the desired NaCl concentration. In each case, analyte samples were made up in the appropriate running buffer prior to injection.” left out
as §4

T1 sequence (P01344 25-91 limits assumed): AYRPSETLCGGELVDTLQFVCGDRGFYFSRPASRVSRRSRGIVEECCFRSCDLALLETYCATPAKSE

B1: IGF2R domain 11 expressed in E. coli (pET-15), refolded and purified (receptor)
chain: NEHDDCQVTNPSTGHLFDLSSLSGRAGFTAAYSEKGLVYMSICGENENCPPGVGACFGQTRISVGKANKRLRYVDQVLQLVYKDGSPCPSKSGLSYKSVISFVCRPEAGPTNRPMLISLDKQTCTLFFSWHTPLACEQAT
notes: also called purified 11 from E. coli; native domain 11 protein
[1]
  Kd: 114 nM
  koff: 0.063 s⁻¹
  kon: 553000 M⁻¹ s⁻¹
[2]
  Kd: 114 nM

B2: IGF2R domain 11 with cysteine at position 1544 (E1544C) (receptor)
chain: NEHDDCQVTNPSTGHLFDLSSLSGRAGFTAAYSCKGLVYMSICGENENCPPGVGACFGQTRISVGKANKRLRYVDQVLQLVYKDGSPCPSKSGLSYKSVISFVCRPEAGPTNRPMLISLDKQTCTLFFSWHTPLACEQATHHHHHH
[3]
  binding result: binds

B3: Fc-tagged wild-type IGF2R domain 11 (11-Fc), human IgG1 Fc at the C-terminus, homodimer from Drosophila D.Mel-2 cells (Fc fusion)
chain: NEHDDCQVTNPSTGHLFDLSSLSGRAGFTAAYSEKGLVYMSICGENENCPPGVGACFGQTRISVGKANKRLRYVDQVLQLVYKDGSPCPSKSGLSYKSVISFVCRPEAGPTNRPMLISLDKQTCTLFFSWHTPLACEQAT
modifications: N-glycosylated with two 982.9 Da molecules of Man3GlcNAc2
notes: also called 11^Wild type-Fc; 11^Wild type -Fc; not shown: human IgG1 Fc domain, amplified from IMAGE clone 4851063
[4]
  binding result: no binding
[5]
  Kd: 3.26 nM
[6]
  kon: 1.36e+06 M⁻¹ s⁻¹
[7]
  koff: 0.00445 s⁻¹

B4: Fc-tagged enhanced mutant IGF2R domain 11 (11^E1544K-Fc), human IgG1 Fc at the C-terminus, homodimer from Drosophila D.Mel-2 cells (Fc fusion)
chain: NEHDDCQVTNPSTGHLFDLSSLSGRAGFTAAYSKKGLVYMSICGENENCPPGVGACFGQTRISVGKANKRLRYVDQVLQLVYKDGSPCPSKSGLSYKSVISFVCRPEAGPTNRPMLISLDKQTCTLFFSWHTPLACEQAT
modifications: N-glycosylated with two 982.9 Da molecules of Man3GlcNAc2
notes: not shown: human IgG1 Fc domain, amplified from IMAGE clone 4851063
[3]
  Ru response amplitude relative to 11-Fc at equal concentrations: ~2 fold
  molar affinity relative to 11-Fc: ~2 fold
[4]
  binding result: no binding
[5]
  Kd: 1.79 nM
[6]
  kon: 2.23e+06 M⁻¹ s⁻¹
[7]
  koff: 0.00401 s⁻¹

B5: Fc-tagged null mutant IGF2R domain 11 (11^I1572A-Fc), human IgG1 Fc at the C-terminus, homodimer from Drosophila D.Mel-2 cells (Fc fusion)
chain: NEHDDCQVTNPSTGHLFDLSSLSGRAGFTAAYSEKGLVYMSICGENENCPPGVGACFGQTRASVGKANKRLRYVDQVLQLVYKDGSPCPSKSGLSYKSVISFVCRPEAGPTNRPMLISLDKQTCTLFFSWHTPLACEQAT
modifications: N-glycosylated with two 982.9 Da molecules of Man3GlcNAc2
notes: as for B4
[4]
  binding result: no binding
[8]
  binding result: no binding
